In PMC9021867 (Cell, 2022):

B1: β-VHH1 (VHH)
VHH: QVQLQESGGGSVQAGGSLRLSCVTSGYTYSSANMAWFRQAPGKEREGVAIITPSGRATTYADSVKGRFTISRDNAANTLYLQMNSLKPEDTAMYYCAADTPPYSGLWYAERTYNYWGQGTQVTVSS
B2: β-VHH3 (VHH)
VHH: QVQLQESGGGSVQAGGSLRLSCTASGFTFDDEDMGWYRQAPGNECELVSSIGSLGRRYYADSVKDRFAISQDNAKNTVYLQMNSLKPEDTAVYYCAATKGGSWLDSILASCQGAFGYWGQGTQVTVSS
B3: β-VHH4 (VHH)
VHH: QVQLQESGGGSVQAGGSLRLSCAASGSTSCSSVMRWYRQAPGKEREFVSSINSDRRTVYADSVKGRFTISQDNAKSTLYLQMNSLKAEDTATYYCQRELYGDSWCQGNYWGQGTQVTVSS
B4: β-VHH6 (VHH)
VHH: QVQLQESGGGSVQAGGSLRLSCAASSYTISSVCMGWFRQAPGKEREGVAGIAPDGSTGYGDSVKGRFTISKDNAKNTLYLQMNSLKPEDTAMYYCAAASPGRCFLPRTALEPALYYNWGQGTQVTVSS

Target: Biotinylated human IL-2Rβ ECD (Homo sapiens, UniProt P14784, biotinylated)
Assay: SPR

Chain of Biotinylated human IL-2Rβ ECD (P14784 27-240): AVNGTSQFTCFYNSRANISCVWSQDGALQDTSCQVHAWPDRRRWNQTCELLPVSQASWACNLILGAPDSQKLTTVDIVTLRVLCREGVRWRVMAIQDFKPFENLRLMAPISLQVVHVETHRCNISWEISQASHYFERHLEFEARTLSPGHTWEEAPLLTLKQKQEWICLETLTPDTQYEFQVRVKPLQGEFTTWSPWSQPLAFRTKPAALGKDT

Binder | binding result
B1 | binds
B2 | binds
B3 | binds
B4 | binds
